Data from patent US20110190477A1 (G2 INFLAMMATION, published 2011).
Where “and” joins values, the source holds several entries; their conditions need not be identical. Equal entries are not always repeated. No end group written: not given here. *: point of attachment. Biotin = O=C1N[C@H]2[C@H](CS[C@H]2CCCCC(=O)*)N1

T1: peptide 19 (12 mer from the 2nd extracellular loop of human C5aR) (human)
T1 construct: worked out from 22 12 mers offset by one over 173-205; also called peptide no; 19
T1 peptide: Biotin-SGSGDYSHDKRRERAV

T2: peptide 18 (12 mer from the 2nd extracellular loop of human C5aR) (human)
T2 construct: worked out from 22 12 mers offset by one over 173-205; also called peptide no; 18
T2 peptide: Biotin-SGSGVDYSHDKRRERA

T3: peptide 8 (12 mer from the 2nd extracellular loop of human C5aR) (human)
T3 construct: worked out from 22 12 mers offset by one over 173-205; also called peptide no
T3 peptide: Biotin-SGSGEYFPPKVLCGVD

T4: peptide 10 (12 mer from the 2nd extracellular loop of human C5aR) (human)
T4 construct: worked out from 22 12 mers offset by one over 173-205; also called peptide no; 10
T4 peptide: Biotin-SGSGFPPKVLCGVDYS

T5: peptide 22 (12 mer from the 2nd extracellular loop of human C5aR) (human)
T5 construct: worked out from 22 12 mers offset by one over 173-205; also called peptide no; 22
T5 peptide: Biotin-SGSGHDKRRERAVAIV

T6: peptide 9 (12 mer from the 2nd extracellular loop of human C5aR) (human)
T6 construct: worked out from 22 12 mers offset by one over 173-205; also called peptide no
T6 peptide: Biotin-SGSGYFPPKVLCGVDY

T7: peptide 11 (12 mer from the 2nd extracellular loop of human C5aR) (human)
T7 construct: worked out from 22 12 mers offset by one over 173-205; also called peptide no; 11
T7 peptide: Biotin-SGSGPPKVLCGVDYSH

T8: peptide 12 (12 mer from the 2nd extracellular loop of human C5aR) (human)
T8 construct: worked out from 22 12 mers offset by one over 173-205; also called peptide no; 12
T8 peptide: Biotin-SGSGPKVLCGVDYSHD

T9: peptide 13 (12 mer from the 2nd extracellular loop of human C5aR) (human)
T9 construct: worked out from 22 12 mers offset by one over 173-205; also called peptide no; 13
T9 peptide: Biotin-SGSGKVLCGVDYSHDK

T10: human C5a receptor (human, UniProt P21730 1-350)
T10 construct: On human neutrophils, L1.2/hC5aR transfectants or neutrophils of hC5aR knock-in mice; also called hC5aR; C5aR1
T10 chain: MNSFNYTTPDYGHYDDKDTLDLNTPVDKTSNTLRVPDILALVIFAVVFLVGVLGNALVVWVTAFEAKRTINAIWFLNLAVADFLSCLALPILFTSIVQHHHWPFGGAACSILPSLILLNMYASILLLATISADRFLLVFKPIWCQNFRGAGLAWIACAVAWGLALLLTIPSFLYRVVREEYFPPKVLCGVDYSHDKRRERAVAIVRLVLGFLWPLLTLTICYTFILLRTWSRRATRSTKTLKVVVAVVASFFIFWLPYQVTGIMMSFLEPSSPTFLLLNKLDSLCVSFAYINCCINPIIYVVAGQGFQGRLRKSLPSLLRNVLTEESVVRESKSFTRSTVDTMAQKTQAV

B1: humanized anti-C5aR antibody hAb-Q (antibody, human IgG4 S228P, kappa)
light: DVVMTQSPLSLPVTLGEPASISCRSSQSLVHSNGNTYLHWYLQKPGQSPQLLIYKVSNRFSGVPDRFSGSGSGTDFTLKISRVEAEDVGVYFCSQSTLVPLTFGQGTKLEIKRTVAAPSVFIFPPSDEQLKSGTASVVCLLNNFYPREAKVQWKVDNALQSGNSQESVTEQDSKDSTYSLSSTLTLSKADYEKHKVYACEVTHQGLSSPVTKSFNRGEC
heavy: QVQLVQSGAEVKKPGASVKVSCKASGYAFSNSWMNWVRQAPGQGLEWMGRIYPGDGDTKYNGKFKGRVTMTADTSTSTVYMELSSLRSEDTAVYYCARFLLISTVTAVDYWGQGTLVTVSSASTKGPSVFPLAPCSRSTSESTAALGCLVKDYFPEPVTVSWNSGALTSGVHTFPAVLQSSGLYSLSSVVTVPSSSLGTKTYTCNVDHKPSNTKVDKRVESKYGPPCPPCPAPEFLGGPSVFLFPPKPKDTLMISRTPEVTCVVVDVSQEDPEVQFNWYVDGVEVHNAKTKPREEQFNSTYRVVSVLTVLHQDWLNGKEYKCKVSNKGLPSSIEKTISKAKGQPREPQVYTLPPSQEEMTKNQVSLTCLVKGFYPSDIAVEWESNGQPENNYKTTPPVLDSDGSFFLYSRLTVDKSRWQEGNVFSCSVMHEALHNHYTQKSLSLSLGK
notes: IgG4 with the Ser228Pro mutation; also called antibody Q; anti-C5aR ab
B2: humanized anti-C5aR antibody hAb-J (antibody, human IgG4 S228P, kappa)
light: DVVMTQSPLSLPVTLGEPASISCRSSQSLVHSNGNTYLHWYLQKPGQSPQLLIYKVSNRFSGVPDRFSGSGSGTDFTLKISRVEAEDVGVYFCSQSTLVPLTFGQGTKLEIKTVAAPSVFIFPPSDEQLKSGTASVVCLLNNFYPREAKVQWKVDNALQSGNSQESVTEQDSKDSTYSLSSTLTLSKADYEKHKVYACEVTHQGLSSPVTKSFNRGEC
heavy: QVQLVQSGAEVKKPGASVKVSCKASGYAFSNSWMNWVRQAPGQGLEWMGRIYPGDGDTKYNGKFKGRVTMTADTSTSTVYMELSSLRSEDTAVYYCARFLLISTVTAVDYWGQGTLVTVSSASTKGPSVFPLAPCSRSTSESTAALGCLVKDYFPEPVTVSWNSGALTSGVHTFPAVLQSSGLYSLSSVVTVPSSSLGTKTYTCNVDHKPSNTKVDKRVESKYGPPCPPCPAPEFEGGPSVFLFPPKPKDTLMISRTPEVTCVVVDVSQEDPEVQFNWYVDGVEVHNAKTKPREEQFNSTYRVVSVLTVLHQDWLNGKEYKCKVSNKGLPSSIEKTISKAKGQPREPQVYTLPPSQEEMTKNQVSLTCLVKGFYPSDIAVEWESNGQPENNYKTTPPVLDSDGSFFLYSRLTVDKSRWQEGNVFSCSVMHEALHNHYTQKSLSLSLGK
notes: also called antibody J
B3: mouse anti-C5aR monoclonal antibody 7F3 (antibody, V domains shown)
VH: QVQLQQSGPELVKPGASVKISCKASGYAFSNSWMNWVKQRPGKGLEWIGRIYPGDGDTKYNGKFKGKATLTADKSSSTAYMQLSSLTSEDSAVYFCARFLLISTVTAVDYWGQGTTLTVSS
VL: DVVMTQSPLSLPVSLGNQASISCRSSQSLVHSNGNTYLHWYLQKPGQSPKLLIYKVSNRFSGVPDRFSGSGSGTDFSLKISRVEAEDLGVYFCSQSTLVPLTFGAGTKLELK
notes: Mouse monoclonal from hybridoma ECACC 00110609; also called m7F3; mouse 7F3

Experiments:
[1] = biological target: T1, peptide 19 (12 mer from the 2nd …); assay: peptide ELISA, biotin peptide on streptavidin plate
Description: (§1) A set of 22 overlapping peptides (12 mers), each offset by 1 residue from the next, spanning the second extracellular loop (3rd extracellular domain) of human C5aR was synthesised (Mimotopes, Melbourne). Each peptide was made with a biotin group and 4-amino acid linker (SGSG) at its N-terminus. One peptide synthesised, no. 23, was a 33 mer, representing the full length of the 2nd extracellular loop of hC5aR (residues 173-205 from SEQ ID NO:37), also had biotin-SGSG at the N-terminus.
(§2) The experiment was conducted by binding the peptides to a 384-well streptavidin-coated plate then incubating the antibodies with the peptides and detecting bound antibody with an anti-mouse IgG conjugated to horse radish peroxidase (HRP) as follows. Each peptide was dissolved in 200 μl of 60% DMSO to a concentration of 10 mg/ml. Peptides were further diluted 1:1000 to a working strength of 10 μg/ml with PBS/Tween 20/azide solution (0.1% w/v sodium azide in PBS/0.05% Tween 20).
(§3) A 384 well streptavidin-coated plate (Nunc) was blocked with 20 μl of blocking buffer (1% w/v BSA in PBS) per well. The plate was washed 4 times with PBS/Tween20 buffer (0.1% v/v Tween 20 in PBS). 20 μl of diluted peptide solution was transferred into a well and the plate incubated for 1 hour at room temperature. After washing the plate 4 times (as above) 20 μl antibody (0.5, 1, 1.25, 2.5 or 5 μg/ml) was added to the well and the plate was incubated for 1 hour at 20° C. The plate was washed 4 times as above then 20 μlHRP-conjugated anti-mouse IgG (1:5000 dilution in PBS/Tween 20) was added to each well. After a 1 hour incubation at room temperature the plate was washed 3 times (as above) then twice with PBS to remove traces of Tween. The presence of peroxidase was detected by adding 20 μl of freshly prepared TMB Substrate reagent (BD Opt EIA) to each well and incubating at room temperature for 20 min. Finally the plate was read at 650 nm/450 nm.

[2] = biological target: T2, peptide 18 (12 mer from the 2nd …); assay: as above
Description: as §1, §2, §3

[3] = biological target: T3, peptide 8 (12 mer from the 2nd …); assay: as above
Description: as §1, §2, §3

[4] = biological target: T4, peptide 10 (12 mer from the 2nd …); assay: as above
Description: as §1, §2, §3

[5] = biological target: T5, peptide 22 (12 mer from the 2nd …); assay: as above
Description: as §1, §2, §3

[6] = biological target: T6, peptide 9 (12 mer from the 2nd …); assay: as above
Description: as §1, §2, §3

[7] = biological target: T7, peptide 11 (12 mer from the 2nd …); assay: as above
Description: as §1, §2, §3

[8] = biological target: T8, peptide 12 (12 mer from the 2nd …); assay: as above
Description: as §1, §2, §3

[9] = biological target: T9, peptide 13 (12 mer from the 2nd …); assay: as above
Description: as §1, §2, §3

human C5a receptor = biological target: T10, human C5a receptor; assay: saturation binding to human neutrophils at 4 C, flow cytometry
Protocol: Human neutrophils, isolated as described above, were resuspended in dPBS and 1×10⁵ cells (in 25 μl) were dispensed into wells of a 96-well plate. An equal volume (25 μl) of 2× antibody (diluted in PBS) was added to each well. The final antibody concentration using 2-fold serial dilution ranged from 40 to 0 ug/ml (using unlabelled hAb-Q, hAb-J and 7F3). Cells and antibody were incubated for 20 min times at 4° C. After incubation, 100 μl PBS+1% BCS was added to each well and the plate centrifuged at 2,000 rpm for 3 min. […] The cells were washed once as above and resuspended in PBS+1% FCS for analysis by flow cytometry. FSC v SSC scatter was used to identify neutrophils, with the Median Fluorescence Intensity (MFI) determined for each sample. EC50 values were determined by fitting data (MFI—background vs log₁₀[antibody concentration]) to the sigmoidal dose-response (variable slope) i.e. 4-parameter logistic equation using GraphPad Prism (v4.0) software. Bₘₐₓ and KD were determined by fitting data to the one-site binding hyperbola equation.

Row | Binder | binding result [1] | binding result [2] | binding result [3] | binding result [4] | binding result [5] | binding result [6] | binding result [7] | binding result [8] | binding result [9] | EC50 (human C5a receptor) | Kd (human C5a receptor)
1 | B1 | no binding | no binding | no binding | no binding | no binding | no binding | no binding | no binding | no binding | 20 nM to 25 nM (2×) and ~3 µg/mL | 20 nM to 25 nM (2×) and ~3 µg/mL
2 | B2 | no binding | no binding | no binding | no binding | no binding | no binding | no binding | no binding | no binding | – | –
3 | B3 | no binding | no binding | no binding | no binding | no binding | no binding | no binding | no binding | no binding | 8 to 10 nM | 8 to 10 nM
